Reference: the Immune Epitope Database (IEDB)
Blank lines part the entries; values can stand above or below the sequence they belong to.

Columns and labels:
[1] = target: HLA-A*01:01; test: IEDB peptide-MHC binding, purified MHC/direct/fluorescence; filed as Kd, often an IC50 or EC50 that approximates it; ≥ and ≤ were set here for values at or beyond the usual limits of such assays
[2] = target: HLA-A*02:01; test: as above
[3] = target: HLA-A*03:01; test: as above
[4] = target: HLA-A*11:01; test: as above
[5] = target: HLA-A*23:01; test: as above; details: source organism: Influenza A virus
[6] = target: HLA-A*24:02; test: as above
[7] = target: HLA-A*24:03; test: as above
[8] = target: HLA-A*26:01; test: as above
[9] = target: HLA-A*31:01; test: as above
[10] = target: HLA-A*68:02; test: as above; details: source organism: Influenza A virus
[11] = target: HLA-A*69:01; test: as above
[12] = target: HLA-B*07:02; test: as above
[13] = target: HLA-B*08:01; test: as above
[14] = target: HLA-B*15:01; test: as above
[15] = target: HLA-B*27:05; test: as above
[16] = target: HLA-B*40:01; test: as above
[17] = target: HLA-B*44:02; test: as above
[18] = target: HLA-B*46:01; test: as above
[19] = target: HLA-B*57:01; test: as above; details: source organism: Influenza A virus
[20] = target: HLA-B*58:01; test: as above
[21] = target: HLA-A*26:02; test: IEDB peptide-MHC binding, purified MHC/competitive/fluorescence; filed as Kd, often an IC50 or EC50 that approximates it; ≥ and ≤ were set here for values at or beyond the usual limits of such assays
[22] = target: HLA-B*15:17; test: as above
[23] = target: HLA-B*18:01; test: as above
[24] = target: HLA-C*05:01; test: IEDB peptide-MHC binding, purified MHC/direct/fluorescence; filed as Kd, often an IC50 or EC50 that approximates it; ≥ and ≤ were set here for values at or beyond the usual limits of such assays
[25] = target: HLA-B*08:02; test: as above
[26] = target: HLA-A*02:03; test: IEDB peptide-MHC binding, purified MHC/competitive/fluorescence; filed as Kd, often an IC50 or EC50 that approximates it; ≥ and ≤ were set here for values at or beyond the usual limits of such assays
[27] = target: HLA-A*02:06; test: as above
[28] = target: HLA-A*02:11; test: as above; details: source organism: Pasteurella multocida subsp. multocida str. Pm70
[29] = target: HLA-A*02:12; test: as above; details: source organism: Pasteurella multocida subsp. multocida str. Pm70
[30] = target: HLA-B*15:09; test: IEDB peptide-MHC binding, purified MHC/direct/fluorescence; filed as Kd, often an IC50 or EC50 that approximates it; ≥ and ≤ were set here for values at or beyond the usual limits of such assays
[31] = target: HLA-B*18:01; test: as above; details: source organism: Influenza A virus (A/Viet Nam/HN/2004(H5N1))
[32] = target: HLA-A*01:01; test: IEDB peptide-MHC binding, purified MHC/competitive/fluorescence; filed as Kd, often an IC50 or EC50 that approximates it; ≥ and ≤ were set here for values at or beyond the usual limits of such assays; details: source organism: Human immunodeficiency virus 1
[33] = target: HLA-A*30:01; test: as above; details: source organism: Human immunodeficiency virus 1
[34] = target: HLA-B*15:01; test: as above; details: source organism: Human immunodeficiency virus 1
[35] = target: HLA-B*57:01; test: as above; details: source organism: Human immunodeficiency virus 1
[36] = target: HLA-A*02:11; test: IEDB peptide-MHC binding, purified MHC/direct/fluorescence; filed as Kd, often an IC50 or EC50 that approximates it; ≥ and ≤ were set here for values at or beyond the usual limits of such assays; details: source organism: Bacillus cereus NVH0597-99
[37] = target: HLA-B*39:01; test: as above; details: source organism: Bacillus cereus NVH0597-99
[38] = source organism: Influenza A virus
[39] = source organism: Influenza A virus (A/tiger/Thailand/CU-LV/2004(H5N1))
[40] = source organism: Influenza A virus (A/Puerto Rico/8/34/Mount Sinai(H1N1))
[41] = source organism: Influenza A virus (A/ruddy turnstone/NJ/60/1985(N9))
[42] = source organism: H9N2 subtype Influenza A virus (A/swine/Korea/S81/2004(H9N2))
[43] = source organism: Pasteurella multocida
[44] = source organism: Pasteurella multocida subsp. multocida str. Pm70
[45] = source organism: Influenza A virus (A/equine/New York/1/1999(H3N8))
[46] = source organism: Influenza A virus(A/swine/Shandong/fNY/2003(H9N2))
[47] = source organism: Influenza A virus (A/Viet Nam/HN/2004(H5N1))
[48] = source organism: Influenza A virus(A/swine/Henan/3/2004(H9N2))
[49] = source organism: Human immunodeficiency virus 1

Sequence: DWSGYSGSF
Kd [1, 38]: ≥ 20 µM
Kd [2, 38]: ≥ 20 µM
Kd [3, 38]: ≥ 20 µM
Kd [4, 38]: ≥ 20 µM
Kd [5]: 0.175 µM
Kd [6, 38]: 0.0875 µM
Kd [7, 39]: 0.072 µM
Kd [8, 39]: ≥ 20 µM
Kd [9, 38]: ≥ 20 µM
Kd [10]: ≥ 20 µM
Kd [11, 38]: ≥ 20 µM
Kd [12, 38]: ≥ 20 µM
Kd [13, 38]: ≥ 20 µM
Kd [14, 40]: ≥ 10 µM
Kd [15, 38]: ≥ 20 µM
Kd [16, 38]: ≥ 20 µM
Kd [17, 38]: ≥ 20 µM
Kd [18, 38]: ≥ 20 µM
Kd [19]: ≥ 20 µM
Kd [20, 38]: ≥ 20 µM
Kd [21, 41]: 3.45 µM
Kd [22, 41]: 1.24 µM
Kd [23, 41]: ≥ 20 µM

Sequence: FFNVEIPEF
Kd ([24]; source organism: human gammaherpesvirus 4): ≥ 20 µM

Sequence: KAVRGDLNF
Kd [1, 42]: ≥ 20 µM
Kd [2, 42]: ≥ 20 µM
Kd [3, 42]: ≥ 20 µM
Kd [4, 42]: ≥ 20 µM
Kd [6, 42]: ≥ 20 µM
Kd [9, 42]: ≥ 20 µM
Kd [11, 42]: ≥ 20 µM
Kd [12, 42]: ≥ 20 µM
Kd [13, 42]: ≥ 20 µM
Kd ([25]; source organism: Influenza A virus(A/swine/Shandong/fZC/2003(H9N2))): ≥ 20 µM
Kd [14, 40]: 0.929 µM
Kd [15, 42]: ≥ 20 µM
Kd [16, 42]: ≥ 20 µM
Kd [17, 42]: ≥ 20 µM
Kd [20, 42]: 0.093 µM

Kd [1, 43]: ≥ 20 µM
Kd [2, 43]: 0.0472 µM
Kd [3, 43]: ≥ 20 µM
Kd [4, 43]: ≥ 20 µM
Kd [7, 43]: 11.4 µM
Kd [8, 43]: ≥ 20 µM
Kd [9, 43]: 2.58 µM
Kd [11, 43]: 0.0168 µM
Kd [12, 43]: ≥ 20 µM
Kd [13, 43]: ≥ 20 µM
Kd [14, 43]: 7.69 µM
Kd [15, 43]: ≥ 20 µM
Kd [16, 43]: ≥ 20 µM
Kd [20, 43]: ≥ 20 µM
Kd [26, 44]: ≤ 0.0001 µM
Kd [27, 44]: ≤ 0.0001 µM
Kd [28]: ≤ 0.0001 µM
Kd [29]: ≤ 0.0001 µM
Sequence: LMAEDLANV

Sequence: RELVRKTRF
Kd [1, 45]: ≥ 20 µM
Kd [2, 45]: ≥ 20 µM
Kd [3, 45]: ≥ 20 µM
Kd [4, 45]: ≥ 20 µM
Kd [6, 45]: ≥ 20 µM
Kd [8, 46]: ≥ 20 µM
Kd [9, 45]: ≥ 20 µM
Kd [11, 45]: ≥ 20 µM
Kd [12, 45]: ≥ 20 µM
Kd [13, 45]: ≥ 20 µM
Kd [14, 40]: 1.58 µM
Kd [30, 46]: ≥ 20 µM
Kd [15, 45]: ≥ 20 µM
Kd [16, 40]: 0.35 µM
Kd [18, 45]: ≥ 20 µM
Kd [20, 45]: ≥ 20 µM

Sequence: RRVRDNMTK
Kd [1, 47]: ≥ 20 µM
Kd [2, 47]: ≥ 20 µM
Kd [3, 47]: ≥ 20 µM
Kd [4, 47]: ≥ 20 µM
Kd [6, 47]: ≥ 20 µM
Kd [8, 48]: ≥ 20 µM
Kd [11, 47]: ≥ 20 µM
Kd [12, 47]: ≥ 20 µM
Kd [13, 47]: ≥ 20 µM
Kd [25, 48]: ≥ 20 µM
Kd [14, 47]: ≥ 20 µM
Kd [31]: ≥ 20 µM
Kd [15, 40]: 0.45 µM
Kd [16, 47]: ≥ 20 µM
Kd [17, 47]: ≥ 20 µM
Kd [18, 47]: ≥ 20 µM
Kd [20, 47]: ≥ 20 µM

Sequence: RSLYNTIATLY
Kd [32]: 1.65 µM
Kd [26, 49]: 0.722 µM
Kd [27, 49]: ≥ 20 µM
Kd [21, 49]: 0.921 µM
Kd [33]: ≥ 20 µM
Kd [34]: 0.103 µM
Kd [22, 49]: 0.0007 µM
Kd [23, 49]: 0.119 µM
Kd [35]: 0.128 µM

Sequence: YNDWEGNEL
Kd [36]: ≥ 20 µM
Kd ([30]; source organism: Bacillus cereus NVH0597-99): 3.92 µM
Kd [37]: 0.598 µM
Kd ([24]; source organism: Bacillus anthracis str. A0193): 0.095 µM
